T1: Human secretagogin (SEQ ID NO: 1, containing an amino terminal … FLIS tag) (human, UniProt O76038 1-276)
T1 construct: It was biotinylated for the screening ELISA and unlabeled in the sandwich screens; also called Secretagogin protein; human secretagogin-biotin
T1 sequence: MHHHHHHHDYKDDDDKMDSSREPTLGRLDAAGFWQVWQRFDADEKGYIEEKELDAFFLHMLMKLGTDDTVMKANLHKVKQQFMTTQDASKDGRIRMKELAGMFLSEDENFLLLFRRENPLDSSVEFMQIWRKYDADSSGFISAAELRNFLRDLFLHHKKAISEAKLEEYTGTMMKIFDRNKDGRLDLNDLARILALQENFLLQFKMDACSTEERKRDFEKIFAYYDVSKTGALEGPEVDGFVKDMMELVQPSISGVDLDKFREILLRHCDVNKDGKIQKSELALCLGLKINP


Target: T1, Human secretagogin (SEQ ID NO: 1, …)
Test: method not stated

Row | Binder | Ka [M⁻¹]
1 | ST108Z R1ZM 02871 (antibody, V domains shown, Mouse monoclonal antibody from phage-display library ST108ZR1, expressed in E. coli from a plasmid vector) VH: EVQLQQSGPELVKPGTSVKMSCKASGYSFTDYNMHWVKQSHGKSLEWIGYVDPNIGGTSYNPKFKGKATLTVNKSSSTAYMELRSLTSEDSAVYFCARYPNYSGRRYLFAMDYWGQGTSVTVSS VL: EIVLTQSPAIMSASPGEKVTLTCSASSSISSSYFYWYRQKPGSSPQLWIYGTSNLASGVPARFSGSGSGTSYSLTISSMEAEDAASYFCHQWSSYPLTFGAGTKLELK | ≥ 1e+10
2 | ST102Z X1ZM 01611 (antibody, V domains shown, Mouse monoclonal antibody from phage-display library ST102ZX1, expressed in E. coli from a plasmid vector) VH: QVQLQQSRPELVRPGASVKISCKAPGYIFTSHWMQWVRQRPGQGLEWIGEIFPGSGSTFYNEKFKDKATLTVDTSSSTAYMQLSSLTSEDSAVYFCARTDYYSSAMDYWGQGTSVTVSS VL: ETTVTQSPSSLSMAIGEKVTIRCITHTDIDDDMNWYQQKPGEPPKLLISEGNTLRPGVPSRFSSSGFGTDFFFTIENMLSEDVADYYCLQSDTLPLTFGAGTKLELK | ≥ 1e+10

Source: patent US20100267060A1 (BIOSITE, published 2010)
